# Numbering of substitutions follows the chain as printed.
# B1: recombinant monoclonal antibody 17A8-1 (antibody, V domains shown)
# VH: QSVEESGGRLVTPGTPLTLTCTVSGFPLSSYSMAWVRQAPGKGLEYIGFINTDGSAYYASWAKGRITISKTSTTVELKITSPTTEDTATYFCGTGNIWGPGTLVTVSS
# VL: AQVLTQTPSSVSAAVGGTVTINCQASQSVSNNNVLAWFQQKPGQPPKRLIYSALTLDSGVPSRFKGSGSGTHFTLTISGVQCDDAATYYCAGGYDCSSNDCIAFGGGTEVVVK
# notes: the antibody was detected with an anti-rabbit IgG secondary antibody; Only the variable regions are printed; also called anti-IR4 rMAb; source: made by GenScript
# B2: recombinant monoclonal antibody 28D3-1 (antibody, V domains shown)
# VH: B1 VH with P27S, A34G, F49M, N51I, T52S, D53N, G54N, A56T
# VL: B1 VL with S9A, V29T, V34A, A103T
# notes: as for B1
# B3: recombinant monoclonal antibody 15E2-1 (antibody, V domains shown)
# VH: QSLEESGGGLFKPTDTLTLTCTVSGIDLSSYAMIWVRQAPGKGLEWIGYIWSSGRIWYASWAKGRFTISRTSTTVDLKLASPTTEDTATYFCARLWDIWGPGTLVTVSS
# VL: AQVLTQTPSSVSAAVGGTVTISCQASQSLYNGVNLAWYQQKPGQPPKLLIFGASNLESGVSSRFRGSGSGTQFTLTISGVQCDDAATYYCLGEFSCSSADCLAFGGGTEVVVK
# notes: as for B1
# B4: recombinant monoclonal antibody 1D11-4 (antibody, V domains shown)
# VH: QSLVESGGGLVQPEGSLTLTCKASGFSFSSGYDMCWVRQAPGKGLEYIACIDAGDDITHYASWVKGRFTVSKTSSTTVTLQLNSLTVADTATYFCGRFWDLWGPGTLVTVSS
# VL: SSVLTQTPSPVSAAVGGTVTINCQSSQSVYDSTWLGWYQQKPGQPPKLLIYKASNLASGVPSRFKGSGSGTHFTLTISDLECDDAATYYCVGGYSGSVDNWAFGGGTEVVVK
# notes: the antibody was detected with an anti-rabbit IgG secondary antibody; Only the variable regions are printed; also called anti-IR6 rMAb; source: made by GenScript
# B5: antibody in the supernatant of rabbit B cell line 17A8 (antibody, V domains shown)
# VH: B1 VH
# VL: B1 VL
# notes: Unpurified antibody of the cell line
# B6: antibody in the supernatant of rabbit B cell line 28D3 (antibody, V domains shown)
# VH: B1 VH with P27S, A34G, F49M, N51I, T52S, D53N, G54N, A56T
# VL: B1 VL with S9A, V29T, V34A, A103T
# notes: as for B5
# B7: antibody in the supernatant of rabbit B cell line 15E2 (antibody, V domains shown)
# VH: B3 VH
# VL: B3 VL
# notes: as for B5
# B8: antibody in the supernatant of rabbit B cell line 1D11 (antibody, V domains shown)
# VH: B4 VH
# VL: B4 VL
# notes: Unpurified antibody of the cell line; also called anti-IR6 1D11 cell line
# Biological target: T1, recombinant VlsE protein (of strain B31) (Borreliella burgdorferi B31 (clone …, UniProt O06878))
# T1 construct: VlsE of B. burgdorferi B31, clone B31-5A3: the 585-bp vlsE cassette region (including the IR1 through VR6 regions), codon-optimized; 585 bp would encode about 195 residues; also called recombinant B31 VlsE; vlsE cassette; source: E. coli BL21 (pET24), purified (Ni-NTA); estimated purity ~65%
# Assay: ELISA; validation of the specificity of the purified rMAbs: antigen (IR peptide or VlsE) fixed on the plate; dilution not told
# Details: both partners purified
row,Binder,binding result
1,B1,binds
2,B2,binds
3,B3,binds
4,B4,binds

# Biological target: T1, recombinant VlsE protein (of strain B31)
# Assay: ELISA; antigen (IR peptide or recombinant VlsE) coated on a 96-well plate at 10 ug/mL overnight at 4 C, blocked with 5% milk; supernatants of rabbit B cell lines applied; HRP anti-rabbit IgG secondary 1:30,000; OD450; reactive if more than 3 SD above the mean BSA reactivity
# Details: one partner purified
row,Binder,binding result
1,B5,binds
2,B6,binds
3,B7,binds
4,B8,binds

# Reference: publication PMC9604149, “Evolution of the vls Antigenic Variability Locus of the Lyme Disease Pathogen and Development of Recombinant Monoclonal Antibodies Targeting Conserved VlsE Epitopes” (Microbiology Spectrum, 2022)
